Residue numbers refer to the chain shown, from its start.

Assay [1] deals with T1, human CTLA4-Fc (R&D Systems) (human, UniProt P16410 36-161).
T1 construct: extracellular domain; Bought reagent; also called rhCTLA-4-Fc; hCTLA-4; not shown: Fc part of the bought fusion protein; not described
The experiment in a line: by the legend: binding to immobilized recombinant hCTLA-4 protein as in FIG. 1E; 4-E03 purified from BT-001-infected MIA PaCa-2 cells; the y axis reads 'IgG binding (geomean; x10^3)' [contd.) G].

For assay [2], the target named is T1, human CTLA4-Fc (R&D Systems). Put plainly: by the legend: binding to immobilized recombinant hCTLA-4 protein as in FIG. 1E; the y axis reads 'IgG binding (geomean; x10^3)' [contd.) G].
For assay [3], the target named is T2, human CD28-Fc (R&D Systems) (human, UniProt P10747 19-152).
T2 construct: Bought reagent; also called human homologue CD28; not shown: Fc part of the bought fusion protein; not described
The experiment in a line: ELISA, luminescence: antigen coated, antibody titrated [contd.) E]. Background: ELISA stands for enzyme-linked immunosorbent assay.

In assay [4] the target is T1, human CTLA4-Fc (R&D Systems). Described as above.
Assay [5] has as its target T3, mouse CTLA4-Fc (Sino Biological) (mouse, UniProt P09793 36-162, limits assumed).
T3 construct: Bought reagent; also called mouse CTLA-4 protein; recombinant CTLA-4; not shown: Fc part of the bought fusion protein; not described
The description is as above.

In assay [6] the target is T4, human CTLA-4 protein (Sino Biological), soluble (human, UniProt P16410 36-162, limits assumed).
T4 construct: Analyte of the Biacore experiment; also called soluble human CTLA-4
T4 sequence (P16410 36-162 limits assumed): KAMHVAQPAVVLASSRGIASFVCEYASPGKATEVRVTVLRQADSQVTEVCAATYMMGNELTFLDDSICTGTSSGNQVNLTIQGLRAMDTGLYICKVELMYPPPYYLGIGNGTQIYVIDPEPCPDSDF
Put plainly: SPR (Biacore): antibody at 5 nM captured on immobilized anti-human Fc, human CTLA-4 protein injected at rising concentrations [contd.) C, upper panel]. In general terms: SPR reads the build-up and loss of mass on a sensor chip optically.

The target in assay [7] is T1, human CTLA4-Fc (R&D Systems). The experiment in a line: ligand-blocking ELISA: human CTLA4-Fc coated, antibody titrated, His-tagged rhCD86 added and detected with anti-His-HRP [contd.) G, panel hCD86].
In another assay the target is T5, cmCTLA-4 (Macaca fascicularis, UniProt G7PL88).
T5 construct: recombinant protein coated for ELISA; also called cynomolgus CTLA-4; cynomolgus monkey CTLA-4
T5 sequence (G7PL88 entry or part of it): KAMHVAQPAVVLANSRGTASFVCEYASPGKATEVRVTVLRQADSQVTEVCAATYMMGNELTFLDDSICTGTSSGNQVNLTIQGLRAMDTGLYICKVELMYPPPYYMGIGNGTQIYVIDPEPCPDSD
Put plainly: ELISA, luminescence: antigen coated, antibody titrated [contd.) E].

Assay [8] addresses T4, human CTLA-4 protein (Sino Biological), …. Put plainly: SPR (Biacore 3000); mAb captured by immobilised anti-human Fc, soluble human CTLA-4 injected (1.6 to 50 nM).
The target of assay [9] is T1, human CTLA4-Fc (R&D Systems). Put plainly: ligand-blocking ELISA: human CTLA4-Fc coated, antibody titrated, His-tagged rhCD80 added and detected with anti-His-HRP [contd.) G, panel hCD80].
The target of assay [10] is T3, mouse CTLA4-Fc (Sino Biological). The experiment in a line: ELISA, luminescence: mouse CTLA4-Fc coated, 5-B07 mIgG2a titrated in 3-fold steps [contd.) E].
Assay [11] addresses T6, mouse CTLA-4 on transfected cells (mouse, UniProt P09793 36-223).
T6 construct: whole, on cells; also called mCTLA-4-transfected cells; mouse CTLA-4 transfected CHO cells
The experiment in a line: flow cytometry on mCTLA-4-transfected cells, antibody titrated [contd.) I]. Background: Flow cytometry measures light scatter and fluorescence of single cells or particles in a stream.

For assay [12], the target named is T3, mouse CTLA4-Fc (Sino Biological). Put plainly: ligand-blocking ELISA: mouse CTLA4-Fc coated, antibody titrated, His-tagged mouse CD80 added and detected with anti-His-HRP [contd.) J, panel mCD80].
For assay [13] the target is unchanged. Put plainly: ligand-blocking ELISA: mouse CTLA4-Fc coated, antibody titrated, His-tagged mouse CD86 added and detected with anti-His-HRP [contd.) J, panel mCD86].

T1 sequence (P16410 36-161): as the sequence (G7PL88 entry or part of it) above, with N14S, T18I, M106L counted along it

B1: 4-E03 hIgG1 (anti-human CTLA-4, human IgG1) (antibody, V domains shown)
VH: EVQLLESGGGLVQPGGSLRLSCAASGFTFSDYYMSWVRQAPGKGLEWVSGISWSSRDKGYADSVKGRFTISRDNSKNTLYLQMNSLRAEDTAVYYCTTDLARYWGQGTLVTVSS
VL: QSVLTQPPSASGTPGQRVTISCTGSSSNIGAGYDVHWYQQLPGTAPKLLIYGNDNRPSGVPDRFSGSKSGTSASLAISGLRSEDEADYYCAVWDDSLNGVVFGGGTKLTVLG
notes: Human IgG1 lambda, recombinant (HEK 293 EBNA); also called 4-E03 IgG1; anti-hCTLA-4 (4-E03)
A word on the EC50 (read off the curve): it is the midpoint of the concentration-response curve. As usually defined, the Kd is the equilibrium constant for the complex coming apart. B1: the concentration giving a half-maximal response (EC50 (read off the curve)) in assay [1] was about 4000 pM; in assay [2] it was about 6000 pM; in assay [4] it was about 300 pM; with cmCTLA-4, about 300 pM. The binding result in assay [3] is recorded as “no binding (tested: about 20 nM)”; in [5] it was “binds”. For the same molecule, the Kd in assay [6] was determined as 400 pM; in assay [8] it was 600 pM. In addition, the “IC50 (read off the curve)” value was about 400 pM in [7] and about 1000 pM in assay [9].

B2: 2-C06 (anti-human CTLA-4 antibody clone) (antibody, human IgG1, V domains shown)
VH: EVQLLESGGGLVQPGGSLRLSCAASGFTFSSYAMSWVRQAPGKGLEWVSGISGSGGYIHYADSVKGRFTISRDNSKNTLYLQMNSLRAEDTAVYYCATYSSGLHDAFDIWGQGTLVTVSS
VL: B1 VL with G52D, D54N, N55K, V92A, V100W
notes: Tested as human IgG1 (lambda light chain)
Regarding B2, the figures for the “IC50 (read off the curve)” value in assay [7] and in assay [9] were about 400 pM and about 1000 pM, respectively.

B3: ipilimumab (antibody, V domains shown)
VH: QVQLVESGGGVVQPGRSLRLSCAASGFTFSSYTMHWVRQAPGKGLEWVTFISYDGNNKYYADSVKGRFTISRDNSKNTLYLQMNSLRAEDTAIYYCARTGWLGPFDYWGQGTLVTVSS
VL: not shown
Take B3: the “EC50 (read off the curve)” value with cmCTLA-4 is about 200 pM.

B4: 5-B07 mIgG2a (anti-mouse CTLA-4, mouse IgG2a) (antibody, V domains shown)
VH: EVQLLESGGGLVQPGGSLRLSCAASGFTFSSYSMNWVRQAPGKGLEWVSAISGSGGSTYYADSVKGRFTISRDNSKNTLYLQMNSLRAEDTAVYYCARDRVEMNQWLADWGQGTLVTVSS
VL: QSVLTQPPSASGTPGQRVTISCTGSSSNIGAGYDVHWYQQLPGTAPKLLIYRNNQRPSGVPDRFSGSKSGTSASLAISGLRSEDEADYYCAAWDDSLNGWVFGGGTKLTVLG
notes: The protein in the assay lacks the signal peptide; also called anti-mCTLA-4 (5-B07); mouse surrogate antibody 5-B07 mIgG2a
B4: the 50% effective concentration (EC50 (read off the curve)) is about 700 pM in assay [10] and about 0.8 µg/mL in [11]. The “IC50 (read off the curve)” value in [12] was about 2000 pM; in [13], about 600 pM.

(Values after patent US20240374719A1 (BIOINVENT INTERNATIONAL, published 2024).)
